Experimental data as given in patent US20220293215A1.

Molecular target: I-A^b (MHCII) of murine bone marrow-derived dendritic cells from C57BL/6J mice (mouse) (UniProt P14434)
Assay: MHCII peptidomics: Y3P IP of peptide-MHCII from BMDCs exposed to live Listeria, iTRAQ LC-MS/MS
Conditions: scale: log2 fold change, Listeria 6 hr versus 10 min

logFC: 0.145
Substance: Listeria peptide mNRVmLPLQQmGAKMHGK (lmo1923 (aroE))
